According to paper PMC6426937:

B1: Aha1p, C terminal 6xHis tag (natural protein)
chain: MVVNNPNNWHWVDKNCIGWAKEYFKQKLVGVEAGSVKDKKYAKIKSVSSIEGDCEVNQRKGKVISLFDLKITVLIEGHVDSKDGSALPFEGSINVPEVAFDSEASSYQFDISIFKETSELSEAKPLIRSELLPKLRQIFQQFGKDLLATHGNDIQVPESQVKSNYTRGNQKSSFTEIKDSASKPKKNALPSSTSTSAPVSSTNKVPQNGSGNSTSIYLEPTFNVPSSELYETFLDKQRILAWTRSAQFFNSGPKLETKEKFELFGGNVISELVSCEKDKKLVFHWKLKDWSAPFNSTIEMTFHESQEFHETKLQVKWTGIPVGEEDRVRANFEEYYVRSIKLTFGFGAVL
B2: Aha1p^Δ11, C terminal 6xHis tag (domain or fragment)
chain: VDKNCIGWAKEYFKQKLVGVEAGSVKDKKYAKIKSVSSIEGDCEVNQRKGKVISLFDLKITVLIEGHVDSKDGSALPFEGSINVPEVAFDSEASSYQFDISIFKETSELSEAKPLIRSELLPKLRQIFQQFGKDLLATHGNDIQVPESQVKSNYTRGNQKSSFTEIKDSASKPKKNALPSSTSTSAPVSSTNKVPQNGSGNSTSIYLEPTFNVPSSELYETFLDKQRILAWTRSAQFFNSGPKLETKEKFELFGGNVISELVSCEKDKKLVFHWKLKDWSAPFNSTIEMTFHESQEFHETKLQVKWTGIPVGEEDRVRANFEEYYVRSIKLTFGFGAVL

Molecular target: Hsp82p (Saccharomyces cerevisiae Hsp90), N terminal 6xHis tag (Saccharomyces cerevisiae) (UniProt P02829)
Sequence (P02829 whole entry): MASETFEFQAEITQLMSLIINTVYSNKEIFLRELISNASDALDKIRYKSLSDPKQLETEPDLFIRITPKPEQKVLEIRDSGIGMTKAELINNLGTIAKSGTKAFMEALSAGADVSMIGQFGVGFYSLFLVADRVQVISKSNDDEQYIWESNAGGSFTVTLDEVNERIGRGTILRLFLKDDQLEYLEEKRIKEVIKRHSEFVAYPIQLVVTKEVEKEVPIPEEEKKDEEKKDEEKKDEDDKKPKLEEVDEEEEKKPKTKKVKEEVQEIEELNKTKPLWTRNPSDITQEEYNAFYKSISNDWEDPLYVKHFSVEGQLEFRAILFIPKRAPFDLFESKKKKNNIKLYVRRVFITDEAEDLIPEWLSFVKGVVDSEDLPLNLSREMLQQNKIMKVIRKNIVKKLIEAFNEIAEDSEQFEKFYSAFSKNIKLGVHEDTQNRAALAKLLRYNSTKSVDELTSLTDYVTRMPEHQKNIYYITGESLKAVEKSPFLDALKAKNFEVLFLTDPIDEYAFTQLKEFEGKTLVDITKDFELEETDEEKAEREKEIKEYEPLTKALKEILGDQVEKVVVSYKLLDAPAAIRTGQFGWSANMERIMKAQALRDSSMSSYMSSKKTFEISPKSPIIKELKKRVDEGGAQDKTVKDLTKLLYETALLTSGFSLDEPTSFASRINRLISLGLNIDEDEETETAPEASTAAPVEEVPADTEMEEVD

| Binder | apparent affinity (Kapp) from stimulation of the Hsp82p ATPase activity by increasing co-chaperone (1 µM Hsp82p, 2 mM ATP, ATP regenerating system) [µM] |
| --- | --- |
| B1 | 1.24 |
| B2 | 0.44 |
